From article PMC10514136, “Peptide-conjugated antimiRs improve myotonic dystrophy type 1 phenotypes by promoting endogenous MBNL1 expression” (Molecular Therapy. Nucleic Acids, 2023) come the findings set out here.

Several values for one entry are separate records, joined by “and”; a condition that tells them apart may be missing. Equal entries are not always repeated.

In data set [1] the test system is DM1 cells. Put plainly: Cell proliferation assay (CellTiter 96 AQueous), cell growth inhibition after lipofection. It counts as cell-based, human. As for the experimental part:
Cells seeded at 10^5 cells/mL in 96-well plates were transfected 24 h later with antimiRs as described previously.[20] After 96 h, cell proliferation was measured using the CellTiter 96 AQueous Non-Radioactive Cell Proliferation Assay (Promega, Madison, WI). Absorbance levels were determined using an Infinite M200 PRO plate reader (Tecan, Männedorf, Switzerland) and the TC50 was calculated using non-linear least-squares regression.

Data set [2] has as its system Nfix exon 7. Briefly: Alternative splicing of Nfix exon 7 in muscle by RT-PCR (PSI, splice recovery). Type of data set: in vivo, mouse. The conditions noted are these: HSALR mice, individual mice; for Percentage spliced-in (PSI) Nfix Gast: 9.2 mg/kg (mean) i.v. x3, day 45, gastrocnemius; for Percentage spliced-in (PSI) Nfix Quads: 9.2 mg/kg (mean) i.v. x3, day 45, quadriceps. How it is done: (§1) Total RNA from murine gastrocnemius and quadriceps muscle was isolated using the miRNeasy Mini Kit (QIAGEN, Hilden, Germany) according to the manufacturer’s instructions. One microgram of RNA was digested with DNase I (Invitrogen, Carlsbad, CA) and reverse transcribed with SuperScript II (Invitrogen) using random hexanucleotides. For subsequent PCR reactions, 20 ng of cDNA was used with GoTaq polymerase (Promega). Specific primers were used to analyze the alternative splicing of Nfix, Atp2a1, and Clcn1 in mouse samples (both muscles). Gapdh levels established the endogenous reference levels using 0.2 ng of cDNA. PCR products were separated on a 2% agarose gel and quantified using ImageJ software (NIH, Bethesda, MD). PSR index was defined as value%SI minus X¯%DSI , divided by X¯%DSI minus X¯%HSI (SI, splicing inclusion of each sample; DSI, disease splicing inclusion; HSI, healthy splicing inclusion). Overall, PSR indicates the amount in both muscles analyzed. Primer sequences and exons analyzed are available in Cerro-Herreros et al.[20] In the case of off-targets, interleukins, and muscle regeneration marker Mstn-1, primers sequences are available in Table S5. We used 1 ng of mouse tissue cDNA as a template for multiplex qPCR using the QuantiFast Probe PCR Kit reagent. Commercial TaqMan probes (QIAGEN) were used for mouse (Mbnl1 and Mbnl2; FAM-labeled probes) and reference (GAPDH; MAX-labeled probe) genes. Results were normalized to Gapdh endogenous gene expression.
(§2) We used homozygous transgenic HSA^LR (line 20 b) mice,[90] which were kindly provided by Dr Thornton (Rochester, NY) and were housed and bred in our animal facility. Experimental groups were FVB as healthy control and HSA^LR treated with a scrambled ON (SC) and PBS as negative controls, and HSA^LR mice treated with all six experimental CPP-PMOs. The mice were randomly allocated to the different treatments as follows: in each cage, each mouse was ear-marked as it was taken out, and each mouse was then assigned to a different treatment. […] Mice were sacrificed 45 days after the first injection and the tissues of interest were frozen in liquid nitrogen for the molecular and histological assays. All the mice used in this study ranged from 5 to 5.5 months of age and all were males.

The subject of data set [3] is Atp2a1 exon 22. Put plainly: Alternative splicing of Atp2a1 exon 22 in muscle by RT-PCR (PSI, splice recovery). The conditions noted are these: HSALR mice, individual mice; for Percentage spliced-in (PSI) Atp2a1 Gast: 9.2 mg/kg (mean) i.v. x3, day 45, gastrocnemius; for Percentage spliced-in (PSI) Atp2a1 Quads: 9.2 mg/kg (mean) i.v. x3, day 45, quadriceps. It counts as in vivo, mouse. How it is done:
as §1, §2

Data set [4] can be described thus: ELISA determination of antimiR conjugate concentrations in tissues. Type of data set: in vivo, mouse. Particulars: HSALR mice, 9.2 mg/kg (mean) i.v. x3, day 45, 9.2 mg/kg; for CPP-PMO levels in tissues, in words: ELISA in kidney, liver, heart, quadriceps, gastrocnemius, brain; for CPP-PMO concentration (pM), Brain / CPP-PMO concentration (pM), Gastrocnemius / CPP-PMO concentration (pM), Heart / CPP-PMO concentration (pM), Kidney / CPP-PMO concentration (pM), Liver / CPP-PMO concentration (pM), Quadriceps: hybridization ELISA, background subtracted, individual mice. As for the experimental part:
Custom ELISA-based measurements of antimiR conjugate concentrations in brain, kidney, liver, heart, gastrocnemius, and quadriceps from treated HSA^LR mice were performed as described in Burki et al.,[89] using the following phosphorothioate probes: for miR-218 (5′ → 3′) [DIG] T∗T∗G∗T∗G∗C∗T∗TGATCTA∗A∗C∗C∗A∗T∗G∗T [BIO]; for miR-23b (5′ → 3′) [BIO] A∗T∗C∗A∗C∗A∗T∗TGCCAGG∗G∗A∗T∗T∗A∗C∗C [DiG] double-labeled with digoxigenin (DIG) and biotin (BIO). In all cases, a control sample was used to subtract the background (HSA^LR treated with PBS for 9b2 and 9b2-KC ONs; HSA^LR treated with Scramble for 6aKC ONs).
Mouse handling and experimental procedures followed the European law regarding laboratory animal care and experimentation (2003/65/C.E.) and were approved by Conselleria de Agricultura, Generalitat Valenciana (reference no. A1539961490857). We used homozygous transgenic HSA^LR (line 20 b) mice,[90] which were kindly provided by Dr Thornton (Rochester, NY) and were housed and bred in our animal facility. Experimental groups were FVB as healthy control and HSA^LR treated with a scrambled ON (SC) and PBS as negative controls, and HSA^LR mice treated with all six experimental CPP-PMOs. The mice were randomly allocated to the different treatments as follows: in each cage, each mouse was ear-marked as it was taken out, and each mouse was then assigned to a different treatment. Animals were injected biweekly intravenously with 150 μL of 1× PBS vehicle (controls; HSA^LR n = 7 and FVB n = 6) or 150 μL of a solution 1.875 mg/mL of the test CPP-PMOs corresponding to an average dose of 9.2 mg/kg (HSA^LR mice: SC n = 5, 9b2-218 n = 5, 9b2-23b n = 5, […] n = 5, […] n = 5, 6aKC-218 n = 5, and 6aKC-23b n = 5; see Table S6 for precise dosing). Mice were sacrificed 45 days after the first injection and the tissues of interest were frozen in liquid nitrogen for the molecular and histological assays. All the mice used in this study ranged from 5 to 5.5 months of age and all were males.

Take “9b2KC-23b (antisense GGUAAUCCCUGGCAAUGUGAU; all phosphorodiamidate morpholino (PMO), T or U not given here; Pip9b2KC peptide conjugated)”: in data set [1], the “TC50” value worked out at 256.00 nM. In addition, in data set [2], the “Percentage spliced-in (PSI) Nfix Gast” value was 45.55% and 53.38% and 57.04% and 62.73% and 57.17%; the “Percentage spliced-in (PSI) Nfix Quads” value is 54.10% and 56.90% and 66.58% and 51.62% and 56.46%. In data set [3], the “Percentage spliced-in (PSI) Atp2a1 Gast” value is 11.22% and 31.29% and 33.92% and 10.51% and 42.67%; the “Percentage spliced-in (PSI) Atp2a1 Quads” value is 37.72% and 33.71% and 28.53% and 24.15% and 39.24%. Moreover, in data set [4], the “CPP-PMO levels in tissues, in words” value was “lower muscle levels”; the “CPP-PMO concentration (pM), Brain” value is 17.78 pM and 0.01 pM and 0.87 pM; the “CPP-PMO concentration (pM), Gastrocnemius” value is 3.32 pM and 2.34 pM and 0.01 pM; the “CPP-PMO concentration (pM), Heart” value is 256.63 pM and 2.97 pM and 105.40 pM. Also, in data set [4], the “CPP-PMO concentration (pM), Kidney” value was 404860.30 pM and 2213436.59 pM and 1672927.68 pM; the “CPP-PMO concentration (pM), Liver” value is 113314.70 pM and 27707.42 pM and 93287.30 pM; the “CPP-PMO concentration (pM), Quadriceps” value was 127.62 pM and 457.08 pM and 0.82 pM. In addition, the “CPP-PMO levels in tissues, in words” value in data set [4] (listed as 9bKC-23b) is on record as “accumulation in liver was higher compared with our target tissues”.

Regarding “9b2KC-218 (antisense ACAUGGUUAGAUCAAGCACAA; all phosphorodiamidate morpholino (PMO), T or U not given here; Pip9b2KC peptide conjugated)”, the “TC50” value in data set [1] came to 88.26 nM. Moreover, in data set [2], the “Percentage spliced-in (PSI) Nfix Gast” value was 66.68% and 66.91% and 60.18% and 67.84% and 62.07%; the “Percentage spliced-in (PSI) Nfix Quads” value was 48.85% and 67.46% and 51.19% and 51.94% and 21.60%. Besides, in data set [3], the “Percentage spliced-in (PSI) Atp2a1 Gast” value was 12.53% and 17.65% and 19.44% and 12.90% and 35.28%; the “Percentage spliced-in (PSI) Atp2a1 Quads” value is 99.70% and 25.98% and 29.31% and 30.83% and 25.20%. Besides, in data set [4], the “CPP-PMO concentration (pM), Brain” value is 6.68 pM and 4.47 pM and 1017.83 pM; the “CPP-PMO concentration (pM), Gastrocnemius” value is 726.85 pM and 1065.08 pM and 788.22 pM; the “CPP-PMO concentration (pM), Heart” value was 1724.69 pM and 184.66 pM and 108.67 pM; the “CPP-PMO concentration (pM), Kidney” value is 1320762.73 pM and 1455590.50 pM and 1409556.69 pM. In addition, in data set [4], the “CPP-PMO concentration (pM), Liver” value was 12456.78 pM and 13391.72 pM and 5588.09 pM; the “CPP-PMO concentration (pM), Quadriceps” value is 37.03 pM and 1605.97 pM and 358.44 pM.
